Measurements as given in US20150158921A1.
Several values for one entry are separate records, joined by “and”; a condition that tells them apart may be missing. Equal entries are not always repeated.

Legend:
Experiment in all cases: cell-based or functional assay
[1] = molecular target: human α6/α3β2β3 nAChR (human) (UniProt P17787)
[2] = molecular target: human α7 nAChR (human) (UniProt P36544)
[3] = molecular target: rat NMDA receptor NR1-2b/NR2A (rat) (UniProt P35439)
[4] = molecular target: rat NMDA receptor NR1-2b/NR2B (rat) (UniProt P35439)
[5] = molecular target: rat NMDA receptor NR1-2b/NR2C (rat) (UniProt P35439)
[6] = molecular target: rat NMDA receptor NR1-2b/NR2D (rat) (UniProt P35439)
[7] = molecular target: rat α6/α3β4 nAChR (rat) (UniProt P12392)
[8] = molecular target: rat α7 nAChR (rat) (UniProt Q05941)
[9] = molecular target: rat α4β2 nAChR (rat) (UniProt P09483)
Chain of rat α4β2 nAChR (rat) (P09483 31-630, chain 1 of 2): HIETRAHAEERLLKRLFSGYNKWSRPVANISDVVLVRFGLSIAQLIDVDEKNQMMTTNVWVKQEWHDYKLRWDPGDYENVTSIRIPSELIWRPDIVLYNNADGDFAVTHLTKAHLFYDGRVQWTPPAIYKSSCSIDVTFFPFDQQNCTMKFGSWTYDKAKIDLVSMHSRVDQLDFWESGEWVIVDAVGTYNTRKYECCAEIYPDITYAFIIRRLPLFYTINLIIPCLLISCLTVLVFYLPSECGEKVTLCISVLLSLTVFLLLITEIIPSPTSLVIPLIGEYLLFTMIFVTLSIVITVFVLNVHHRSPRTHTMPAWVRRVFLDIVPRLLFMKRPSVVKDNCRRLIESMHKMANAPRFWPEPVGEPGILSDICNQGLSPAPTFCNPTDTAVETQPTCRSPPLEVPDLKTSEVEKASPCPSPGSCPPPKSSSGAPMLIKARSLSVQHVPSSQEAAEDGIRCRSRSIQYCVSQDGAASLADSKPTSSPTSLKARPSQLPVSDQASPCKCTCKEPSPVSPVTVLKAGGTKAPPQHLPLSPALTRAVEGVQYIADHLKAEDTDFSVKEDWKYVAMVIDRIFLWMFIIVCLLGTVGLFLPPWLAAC
Chain of rat α4β2 nAChR (rat) (P12390 25-500, chain 2 of 2, further chain): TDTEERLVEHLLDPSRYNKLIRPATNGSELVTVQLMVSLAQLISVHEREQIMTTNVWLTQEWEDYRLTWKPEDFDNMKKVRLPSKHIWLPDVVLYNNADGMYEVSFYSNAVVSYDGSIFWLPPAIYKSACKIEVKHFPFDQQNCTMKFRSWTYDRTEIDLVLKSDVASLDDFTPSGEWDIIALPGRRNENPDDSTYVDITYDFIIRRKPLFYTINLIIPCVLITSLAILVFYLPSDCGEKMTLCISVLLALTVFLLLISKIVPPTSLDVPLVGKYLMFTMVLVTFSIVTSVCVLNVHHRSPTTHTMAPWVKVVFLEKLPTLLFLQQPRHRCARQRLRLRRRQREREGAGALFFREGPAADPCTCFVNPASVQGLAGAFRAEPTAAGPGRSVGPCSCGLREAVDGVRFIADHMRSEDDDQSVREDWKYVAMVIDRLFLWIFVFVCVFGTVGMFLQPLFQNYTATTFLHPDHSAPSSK

Chain of human α7 nAChR (human) (P36544 23-502): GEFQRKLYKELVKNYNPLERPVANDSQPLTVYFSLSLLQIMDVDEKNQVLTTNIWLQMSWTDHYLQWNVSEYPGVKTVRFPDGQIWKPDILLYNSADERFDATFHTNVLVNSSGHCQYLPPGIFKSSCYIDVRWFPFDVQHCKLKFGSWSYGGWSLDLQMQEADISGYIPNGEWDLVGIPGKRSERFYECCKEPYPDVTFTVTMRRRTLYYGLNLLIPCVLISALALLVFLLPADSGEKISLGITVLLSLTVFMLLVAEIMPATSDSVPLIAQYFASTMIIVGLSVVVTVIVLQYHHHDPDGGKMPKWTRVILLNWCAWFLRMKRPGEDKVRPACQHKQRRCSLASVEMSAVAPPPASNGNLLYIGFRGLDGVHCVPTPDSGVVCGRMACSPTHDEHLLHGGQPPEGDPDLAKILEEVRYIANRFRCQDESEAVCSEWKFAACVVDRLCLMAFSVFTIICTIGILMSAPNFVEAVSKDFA
Chain of human α6/α3β2β3 nAChR (human) (P17787 26-502, chain 1 of 2): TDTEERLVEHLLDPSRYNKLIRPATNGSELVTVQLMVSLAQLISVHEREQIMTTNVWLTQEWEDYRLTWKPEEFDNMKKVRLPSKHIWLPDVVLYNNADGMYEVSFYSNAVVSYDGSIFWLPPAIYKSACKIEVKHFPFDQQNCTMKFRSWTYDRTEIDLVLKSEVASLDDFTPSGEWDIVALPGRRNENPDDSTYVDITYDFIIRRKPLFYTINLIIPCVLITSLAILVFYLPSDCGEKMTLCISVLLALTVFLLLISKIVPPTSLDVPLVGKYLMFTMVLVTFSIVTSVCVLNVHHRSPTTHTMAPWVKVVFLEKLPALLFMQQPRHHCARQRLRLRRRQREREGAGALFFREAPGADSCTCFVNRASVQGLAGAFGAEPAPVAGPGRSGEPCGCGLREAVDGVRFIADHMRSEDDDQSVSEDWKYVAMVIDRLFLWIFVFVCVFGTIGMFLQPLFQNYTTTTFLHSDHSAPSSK
Chain of human α6/α3β2β3 nAChR (human) (Q05901 22-458, chain 2 of 2, further chain): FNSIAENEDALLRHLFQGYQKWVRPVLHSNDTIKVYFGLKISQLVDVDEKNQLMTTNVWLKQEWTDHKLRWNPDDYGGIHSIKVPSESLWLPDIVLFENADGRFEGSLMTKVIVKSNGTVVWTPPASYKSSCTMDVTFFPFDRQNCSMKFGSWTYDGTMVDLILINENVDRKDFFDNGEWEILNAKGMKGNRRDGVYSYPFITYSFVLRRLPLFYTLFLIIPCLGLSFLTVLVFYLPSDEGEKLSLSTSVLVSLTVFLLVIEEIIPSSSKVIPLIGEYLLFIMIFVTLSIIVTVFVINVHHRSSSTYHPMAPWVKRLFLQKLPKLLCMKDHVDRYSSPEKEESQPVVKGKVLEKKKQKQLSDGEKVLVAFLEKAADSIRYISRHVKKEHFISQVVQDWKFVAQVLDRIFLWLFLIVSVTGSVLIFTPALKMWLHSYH
Chain of rat α6/α3β4 nAChR (rat) (P12392 21-495): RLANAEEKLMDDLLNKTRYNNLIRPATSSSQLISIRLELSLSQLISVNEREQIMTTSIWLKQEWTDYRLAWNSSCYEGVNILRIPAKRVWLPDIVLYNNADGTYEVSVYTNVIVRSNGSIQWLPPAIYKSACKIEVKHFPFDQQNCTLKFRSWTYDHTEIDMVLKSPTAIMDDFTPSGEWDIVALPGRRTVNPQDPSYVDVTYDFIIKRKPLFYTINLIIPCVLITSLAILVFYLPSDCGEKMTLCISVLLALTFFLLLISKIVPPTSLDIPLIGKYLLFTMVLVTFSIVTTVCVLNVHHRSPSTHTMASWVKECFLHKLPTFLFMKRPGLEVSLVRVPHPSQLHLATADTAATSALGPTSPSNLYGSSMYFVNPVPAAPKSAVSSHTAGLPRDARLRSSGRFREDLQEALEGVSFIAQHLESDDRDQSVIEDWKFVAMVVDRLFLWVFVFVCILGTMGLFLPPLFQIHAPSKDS
Chain of rat α7 nAChR (rat) (Q05941 23-502): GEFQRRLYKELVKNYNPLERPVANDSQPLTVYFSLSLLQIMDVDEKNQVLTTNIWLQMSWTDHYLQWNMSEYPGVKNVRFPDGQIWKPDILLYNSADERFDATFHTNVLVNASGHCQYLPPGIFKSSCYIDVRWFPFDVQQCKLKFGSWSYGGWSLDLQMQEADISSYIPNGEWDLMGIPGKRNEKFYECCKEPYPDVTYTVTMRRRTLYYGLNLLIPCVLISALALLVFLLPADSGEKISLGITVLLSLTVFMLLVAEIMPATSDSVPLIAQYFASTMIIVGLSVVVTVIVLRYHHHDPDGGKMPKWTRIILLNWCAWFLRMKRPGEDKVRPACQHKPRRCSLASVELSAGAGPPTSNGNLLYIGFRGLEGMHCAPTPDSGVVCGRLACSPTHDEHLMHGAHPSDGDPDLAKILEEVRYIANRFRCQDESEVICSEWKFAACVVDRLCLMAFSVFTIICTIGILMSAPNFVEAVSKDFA

αO-conotoxin GeXIVA13 (GeXIVA mature peptide isomer with disulfide bonds I-III, II-IV)
Half-blocking dose IC50, ACh-gated current, oocyte voltage clamp [1]: 0.141 µM
Half-blocking dose IC50, ACh-gated current, oocyte voltage clamp [2]: 3.3 µM
Half-blocking dose IC50, NMDA receptor current, oocyte voltage clamp [3]: > 10 µM
Half-blocking dose IC50, NMDA receptor current, oocyte voltage clamp [4]: > 10 µM and 17 µM
Half-blocking dose IC50, NMDA receptor current, oocyte voltage clamp [5]: > 10 µM
Half-blocking dose IC50, NMDA receptor current, oocyte voltage clamp [6]: > 10 µM
Half-blocking dose IC50, ACh-gated current, oocyte voltage clamp [7]: 0.483 µM
Half-blocking dose IC50, ACh-gated current, oocyte voltage clamp [8]: 4.96 µM

αO-conotoxin GeXIVA14 (GeXIVA mature peptide isomer with disulfide bonds I-IV, II-III)
Half-blocking dose IC50, ACh-gated current, oocyte voltage clamp [1]: 0.197 µM
Half-blocking dose IC50, ACh-gated current, oocyte voltage clamp [2]: 0.865 µM
Half-blocking dose IC50, NMDA receptor current, oocyte voltage clamp [3]: 7.4 µM
Half-blocking dose IC50, NMDA receptor current, oocyte voltage clamp [5]: > 10 µM
Half-blocking dose IC50, NMDA receptor current, oocyte voltage clamp [6]: > 10 µM
Half-blocking dose IC50, ACh-gated current, oocyte voltage clamp [9]: 0.2 µM
Half-blocking dose IC50, ACh-gated current, oocyte voltage clamp [7]: 0.611 µM
Half-blocking dose IC50, ACh-gated current, oocyte voltage clamp [8]: 1.74 µM
